The target of experiment [1] is T1, human GPRC5D (human, UniProt Q9NZD1 1-345). Kind of experiment: cell-based or functional assay.
Experiment [2] deals with T1, human GPRC5D. Kind of experiment: cell-based or functional assay. This is another data set of the same source.
Experiment [3] concerns the target T1, human GPRC5D. Briefly: flow cytometry on NCI-H929 cells; paragraph 550 says these values were falsely calculated by a factor of 10 (too low). On the procedure: (§1) To measure the binding to GPRC5D, we performed a flow cytometry-based binding assay on reported multiple myeloma cell lines (Lombardi et al., Molecular characterization of human multiple myeloma cell lines by integrative genomics: insights into the biology of the disease; Genes Chromosomes Cancer. 2007 March; 46(3):226-38). The cell line NCI-H929 (ATCC® CRL-9068) was cultured in RPMI 1640 with Glutamax medium (Gibco) supplemented with 10% FBS, 1× Penicillin/Streptomycin (Gibco), 1× Sodium Pyruvate (Gibco) and 50 μM beta-Mercaptoethanol (Gibco). Jurkat-NFAT reporter cells (a CD3-expressing human acute lymphatic leukemia reporter cell line with a NFAT promoter, GloResponse Jurkat NFAT-RE-luc2P, Promega #CS176501) were cultured in RPMI 1640, containing 2 g/l Glucose, 2 g/l NaHCO₃, 10% FCS, 25 mM HEPES, 2 mM L-Glutamine, 1×NEAA, 1× Sodium-pyruvate and 200 μg/ml Hygromycin B.
(§2) Flow cytometry acquisition was performed on a custom-designed BD Biosciences Fortessa and analyzed using BD Diva. EC50 values were calculated, using GraphPad Prism software.

Experiment [4] concerns the target T1, human GPRC5D. Briefly: flow cytometry on OPM-2 cells, assay replicate 1. On the procedure: (§3) Cells were re-suspended in PBS at 0.5 Mio cells per ml. Next, 0.05 Mio cells were plated per well of a round-bottom 96-well-plate, centrifuged and supernatants were discarded. Cells were stained with zombie aqua viability stain (BioLegend #423102, pre-diluted 1:400), containing Fc blocking (BioLegend #422302, prediluted 1:400) for 20 minutes in a total volume of 50 ul per well. […] Assay plates were centrifuged and supernatants were discarded.
(§4) Thereafter, cells were resuspended by smooth vortexing and incubated for another 30 min at 4° C. in a total of 25 μl per well, containing 500 nM of the secondary antibody (aPGLALA mulG2b Alexa 647, produced inhouse) in FACS buffer. Cells were washed once and analyzed on a BD flow cytometer, equipped with FACS Diva. Binding curves and EC50 values were obtained using GraphPadPrism6. The EC50 values of assay replicate 1 correspond to the graphs shown in FIG. 25A, FIG. 25B and FIG. 25C. The EC50 values of assay replicate 2 correspond to the graphs shown in FIG. 25D, FIG. 25E and FIG. 25F. The EC50 values of assay replicate 3 correspond to the graphs shown in FIG. 25G, FIG. 25H and FIG. 25I.

The target of experiment [5] is T1, human GPRC5D. Kind of experiment: cell-based or functional assay. The source holds these as a separate data set.
In experiment [6] the target is T1, human GPRC5D. Briefly: flow cytometry on RPMI-8226 cells, assay replicate 1. The protocol: as §3, §4
For orientation: In flow cytometry, cells or beads pass a laser one at a time.

In the next experiment the target is T2, human CD3 (human, UniProt P07766 23-207).
T2 construct: Expressed on Jurkat-NFAT reporter cells as part of the TCR/CD3 complex; also called hCD3; CD3 epsilon
T2 sequence (P07766 23-207 limits assumed): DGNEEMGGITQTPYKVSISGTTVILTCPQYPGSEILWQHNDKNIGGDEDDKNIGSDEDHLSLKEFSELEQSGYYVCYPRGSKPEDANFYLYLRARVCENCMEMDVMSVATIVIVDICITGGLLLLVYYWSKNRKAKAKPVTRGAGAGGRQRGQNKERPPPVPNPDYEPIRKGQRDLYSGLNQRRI
Briefly: flow cytometry on Jurkat-NFAT cells; paragraph 550 says these values were falsely calculated by a factor of 10 (too low). The protocol:
as §1, §2

The target of experiment [7] is T1, human GPRC5D. Kind of experiment: flow cytometry on OPM-2 cells, assay replicate 2. The protocol:
as §3, §4

Experiment [8] concerns the target T1, human GPRC5D. Briefly: cell-based or functional assay. This is another data set of the same source.
Experiment [9] concerns the target T1, human GPRC5D. Kind of experiment: flow cytometry on RPMI-8226 cells, assay replicate 3. The protocol: as §3, §4
In experiment [10] the target is T1, human GPRC5D. Kind of experiment: flow cytometry on NCI-H929 cells, assay replicate 2. On the procedure: as §3, §4
Experiment [11] concerns the target T1, human GPRC5D. Kind of experiment: flow cytometry on OPM-2 cells, assay replicate 3. The protocol:
as §3, §4

Experiment [12] deals with T1, human GPRC5D. Kind of experiment: flow cytometry on RPMI-8226 cells, assay replicate 2. On the procedure:
as §3, §4

For experiment [13], the target named is T1, human GPRC5D. Briefly: flow cytometry on NCI-H929 cells, assay replicate 1. The protocol:
as §3, §4

Experiment [14] has as its target T1, human GPRC5D. Briefly: flow cytometry on NCI-H929 cells, assay replicate 3. On the procedure: as §3, §4

The text below walks through data of US20220259318A1 (Hoffmann-La Roche, published 2022).

Usually EC50 stands for the concentration needed to bring the measured effect to its halfway point.

T1 sequence (Q9NZD1 whole entry): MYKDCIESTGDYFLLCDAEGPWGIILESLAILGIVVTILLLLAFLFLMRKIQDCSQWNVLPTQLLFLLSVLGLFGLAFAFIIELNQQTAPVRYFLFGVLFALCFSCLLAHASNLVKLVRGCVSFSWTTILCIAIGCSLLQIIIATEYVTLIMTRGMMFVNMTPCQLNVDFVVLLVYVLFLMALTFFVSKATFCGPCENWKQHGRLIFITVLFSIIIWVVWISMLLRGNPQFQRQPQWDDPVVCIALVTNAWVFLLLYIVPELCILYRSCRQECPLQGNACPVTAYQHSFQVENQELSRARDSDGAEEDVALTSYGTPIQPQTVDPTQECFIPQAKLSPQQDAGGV

B1: 5E11(VH1c + VL2b)-C122-TCB (P1AE6625) (bispecific antibody, human IgG1, kappa, L234A L235A)
light 1: EIVLTQSPGTLSLSPGERATLSCRASQSVSISGINLMNWYQQKPGQQPKLLIYHASILASGIPDRFSGSGSGTDFTLTISRLEPEDFAVYYCQQTRESPLTFGQGTRLEIKRTVAAPSVFIFPPSDRKLKSGTASVVCLLNNFYPREAKVQWKVDNALQSGNSQESVTEQDSKDSTYSLSSTLTLSKADYEKHKVYACEVTHQGLSSPVTKSFNRGEC
light 2: EVQLLESGGGLVQPGGSLRLSCAASGFQFSSYAMNWVRQAPGKGLEWVSRIRSKYNNYATYYADSVKGRFTISRDDSKNTLYLQMNSLRAEDTAVYYCVRHTTFPSSYVSYYGYWGQGTLVTVSSASVAAPSVFIFPPSDEQLKSGTASVVCLLNNFYPREAKVQWKVDNALQSGNSQESVTEQDSKDSTYSLSSTLTLSKADYEKHKVYACEVTHQGLSSPVTKSFNRGEC
heavy 1: EVQLLESGGGLVQPGGSLRLSCAASGFTFSKYAMAWVRQAPGKGLEWVASISTGGVNTYYADSVKGRFTISRDNSKNTLYLQMNSLRAEDTAVYYCATHTGDYFDYWGQGTMVTVSSASTKGPSVFPLAPSSKSTSGGTAALGCLVEDYFPEPVTVSWNSGALTSGVHTFPAVLQSSGLYSLSSVVTVPSSSLGTQTYICNVNHKPSNTKVDEKVEPKSCDKTHTCPPCPAPEAAGGPSVFLFPPKPKDTLMISRTPEVTCVVVDVSHEDPEVKFNWYVDGVEVHNAKTKPREEQYNSTYRVVSVLTVLHQDWLNGKEYKCKVSNKALGAPIEKTISKAKGQPREPQVCTLPPSRDELTKNQVSLSCAVKGFYPSDIAVEWESNGQPENNYKTTPPVLDSDGSFFLVSKLTVDKSRWQQGNVFSCSVMHEALHNHYTQKSLSLSPGK
heavy 2: not shown
notes: 2+1 TCB: LC1 (anti-GPRC5D), LC2 (anti-CD3 crossed), HC1 Fc hole, HC2 Fc knob
With B1, the “EC50 (pM), activation of autologous T-cells (CD69 on CD8 T cells) with a primary MM sample” value with human GPRC5D [1] turned out to be 14.8 pM. Also, the “EC50 (pM), TCB-mediated tumor cell lysis, AMO-1” value with human GPRC5D [2] turned out to be 8.3 pM. For the same molecule, in the experiment with human GPRC5D [2], the “EC50 (pM), TCB-mediated tumor cell lysis, IM-9” value was 267 pM. In addition, in the experiment with human GPRC5D [2], the “EC50 (pM), TCB-mediated tumor cell lysis, LP-1” value was determined as 7.99 pM. Moreover, the “EC50 (pM), TCB-mediated tumor cell lysis, NCI-H929” value with human GPRC5D [2] was determined as 0.597 pM. Besides, the concentration giving a half-maximal response (EC50) with human GPRC5D [3] is 1.15 nM; with human GPRC5D [4], 34.5 nM; with human GPRC5D [6] it was 26.8 nM; in the experiment with human CD3 it was 11.5 nM; with human GPRC5D [7], 75.5 nM; in the experiment with human GPRC5D [9], 55 nM. Besides, the EC50 in the experiment with human GPRC5D [10] was approximately 123 nM; in the experiment with human GPRC5D [11], 54.2 nM; with human GPRC5D [12] it was 20.4 nM; in the experiment with human GPRC5D [13], 75.8 nM; in the experiment with human GPRC5D [14], approximately 158 nM. For the same molecule, the “AUC, activation of Jurkat-NFAT reporter cells in presence of RPMI-8226 cells” value with human GPRC5D [5] was 572000. The “EC50 (pM), activation of Jurkat-NFAT reporter cells in presence of RPMI-8226 cells” value with human GPRC5D [5] was found to be 40 pM. The “AUC, TCB-mediated tumor cell lysis, AMO-1” value with human GPRC5D [8] is 8.01e+07. The “AUC, TCB-mediated tumor cell lysis, IM-9” value with human GPRC5D [8] was 9.27e+06. The “AUC, TCB-mediated tumor cell lysis, LP-1” value with human GPRC5D [8] is 1.54e+07. For the same molecule, the “AUC, TCB-mediated tumor cell lysis, NCI-H929” value in the experiment with human GPRC5D [8] is 1.79e+07.
